Data: PMC3332085
Where two headings read alike, the source gives them in different places.

Columns and labels:
Experiment in all cases: SAXS
[1] = biological target: wild type yeast frataxin (Yfh1wt; residues 52-174) (S. cerevisiae) (UniProt Q07540)
[2] = biological target: wild type yeast frataxin (Yfh1wt; residues 52-174) (S. cerevisiae) (UniProt Q07540); remark: listed apart in the source
[3] = biological target: wild type yeast frataxin (Yfh1wt; residues 52-174) (S. cerevisiae) (UniProt Q07540); remark: listed apart in the source

Substance: wild type yeast frataxin (Yfh1wt; residues 52-174) (from UniProt Q07540 52-174) (natural protein)
- distribution, hexamer [1]: 9%
- distribution, monomer [1]: 67%
- distribution, trimer [1]: 24%
- stoichiometry N [1]: 2
- distribution, 42-mer [2]: 11%
- distribution, hexamer [2]: 6%
- distribution, monomer [2]: 26%
- distribution, trimer [2]: 57%
- distribution, hexamer [3]: 13%
- distribution, monomer [3]: 54%
- distribution, trimer [3]: 33%
